Our source for the Kd values is paper PMC10433963 (2023).

The labels stand for the following.
B1: DnaJ1 (recombinant) (natural protein)
chain: MAQREWVEKDFYKELGVSSDASADEIKKAYRKLAAELHPDRNSDPGAAERFKAVSEANSVLSDPAKRKEYDETRRLFAGGFGRRFNQGGGGFGGGFGSDGVEFNLGDLFDAAGQTGGANIGDLFGGLFGRGPQQRPSRPRRGNDLETETELSFLEATKGVAMPLRLTSPAPCTNCHGSGARPGTSPKVCPSCNGSGVISRNQGAFGFSEPCTECRGSGSIIEHPCQECRGTGVTTRTRTINVRIPPGVEDGQRIRLAGQGEAGLRGAPSGDLYVTVHVRPDKVFGRDGDDLTVTVPVSFHELALGTTLSVPTLDGKVGVRVPKGTSDGRILRVRGRGVPKRSGGHGDLLVTVKVAVPPNLEGEAAEALEAYAKAERASGFDPRAGWAGNV
B2: Magnesium chelatase (recombinant) (natural protein)
chain: MVSQPKDLPRTVGELRASGHRERGVKAEIRENLLAALAERRDVWPGILGFEDTVIPQLERALIAGHDVVLLGERGQGKTRLLRALTGLLDEWTPVIAGSELGEHPYSPITPESIRRAADSGDDLPVEWRHRSERYTEKLATPDTSVADLVGDIDPIKVAEGRSLGDPETIAYGLIPRAHRGIVAVNELPDLAERIQVAMLNVMEERDIQVRGYTLRLPLDVLVVASANPEDYTNRGRIITPLKDRFGAEIRTHYPLELEAEVGVIRQEAELAAEVPEYLLAVLARFARNLRESNSIDQRSGVSARFAIAAAETVAASARHRAAILGEDDPVARVVDLGTVIDVLRGKLEFETGEEGREQAVLEHLLRRATADTAQRLLGGIDVGPLVAAIEEGSPVTTGERVSAKDVVAALPDLPAIDAIAHRLNAVSVGQRAAAIELALEALYLAKRIDKVSGEGETVYG
B3: XRE (recombinant) (natural protein)
chain: MAQDENLAAVVSNAAQDIGSFIRAQREAAQVSVRQLAEKAGVSNPYLSQIERGLRKPSADVLNQIAKALRVSAEVLYVRAGILEPSEPSEVRDAIVNDVSITERQKQVLLDIYTSFRQQNEAAGEPEGAAVIPSPDEEPATD
B4: GntR (recombinant) (natural protein)
chain: MSPTPDPQSAVPAREIAYRIVYDAIASGRYLPGQWIREDEVTAEAGVSRTPLREALQRLQSEGLVQLVRHRGALVVGWTSADLDDLFDIRVALETYGARRAAQRRGGAQLESLQKLCASMDEILPAAQEPELQQLGHLCIDFHRGIHEAADNRKLLSVMPMVLAPPFVSEAFHHHTRLELEQAFAHHRELVEAIAIGDEDWAEGVMRAHLRHGRRSLRRMERHLPLMTSHDAEPAVTDTGQPETTSSDPVHE

The target of this test is ^H7-SUMOClpC1^FLAG (recombinant ClpC1) (M. smegmatis, UniProt A0R574 1-848). The experiment in a line: MST; 1 mM ATPγS; Kapp from Hill fit.
Chain of ^H7-SUMOClpC1^FLAG (recombinant ClpC1) (A0R574 whole entry): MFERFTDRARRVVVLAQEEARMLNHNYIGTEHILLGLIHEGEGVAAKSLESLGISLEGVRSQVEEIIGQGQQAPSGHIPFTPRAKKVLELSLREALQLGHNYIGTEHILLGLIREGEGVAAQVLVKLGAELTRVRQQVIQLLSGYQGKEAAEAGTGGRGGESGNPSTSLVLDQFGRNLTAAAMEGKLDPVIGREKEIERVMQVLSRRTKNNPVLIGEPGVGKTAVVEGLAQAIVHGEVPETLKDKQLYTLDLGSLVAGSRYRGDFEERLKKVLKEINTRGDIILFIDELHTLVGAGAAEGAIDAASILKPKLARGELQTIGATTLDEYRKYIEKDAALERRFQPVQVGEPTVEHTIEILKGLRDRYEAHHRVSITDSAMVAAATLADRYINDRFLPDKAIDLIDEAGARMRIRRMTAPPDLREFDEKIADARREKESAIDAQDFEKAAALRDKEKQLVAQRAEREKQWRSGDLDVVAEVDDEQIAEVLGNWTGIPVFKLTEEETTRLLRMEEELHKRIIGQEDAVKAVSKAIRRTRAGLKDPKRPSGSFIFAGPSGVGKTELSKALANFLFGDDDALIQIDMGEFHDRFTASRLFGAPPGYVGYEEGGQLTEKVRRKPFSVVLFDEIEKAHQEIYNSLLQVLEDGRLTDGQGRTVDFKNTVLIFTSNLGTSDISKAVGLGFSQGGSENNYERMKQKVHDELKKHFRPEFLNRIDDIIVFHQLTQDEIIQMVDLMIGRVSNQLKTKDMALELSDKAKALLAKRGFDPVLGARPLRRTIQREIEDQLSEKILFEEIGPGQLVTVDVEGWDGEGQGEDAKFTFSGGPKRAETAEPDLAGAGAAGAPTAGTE
On to B1, for which the Kd is 6.4 µM.

In the case of B2, the Kd is 6.7 µM.

For B3, the Kd amounted to 4.6 µM.

B4: the Kd was 3.3 µM.

By Kd is commonly meant the equilibrium constant for the complex coming apart.
